Measurements: PMC13544220, “Glycemic and bodyweight effects of GIPR coding variation reflect differences in surface expression and intrinsic functional impairment” (Science Advances, 2026)
Where a chain is given by its changes, count along the chain named. Numbers in names are those of the source.

Tests used:
Format in all cases: cell-based, human
[1] = system: wild-type and variant SNAP-GIPR; assay: Constitutive and agonist-mediated internalization, reversible SNAP-tag labelling, AD293 cells; parameters: key to Internalisation, Vehicle / Internalisation, +GIP / Internalisation, GIP-only: % internalization: residual fluorescence after Mesna vs pre-Mesna; Surface expression: unit not given here; details: Mean; for +GIP internalisation (100 nM) / GIP-specific internalisation (100 nM) / Constitutive internalisation (100 nM) / Surface expression: Fig 4E; for +GIP internalisation (100 nM) / GIP-specific internalisation (100 nM): GIP 100 nM; for Internalisation, +GIP / Internalisation, GIP-only / Internalisation, Vehicle: Fig S4C, AD293
Summary of the method: (§1)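 Surface SNAP-GIPR signal removable by Mesna was tracked by imaging before and 10 min after treatment in pH 8.6 TNE buffer. Internalization is the Mesna-resistant share of specific fluorescence.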

[2] = system: wild-type and variant SNAP-GIPR; assay: Surface SNAP-GIPR expression (SNAP-tag labelling) in INS-1 cells; details: Fig 4G; Mean
Summary of the method: (§2)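 Surface GIPR is quantified from wide-field images after labelling intact transfected cells with a membrane-impermeant SNAP probe at 500 nM for 10 min at room temperature. Specific signal, corrected for nontransfected cells, is normalized to the experiment-wide average or to wild-type.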

[3] = system: wild-type and variant SNAP-GIPR; assay: Surface SNAP-GIPR expression (SNAP-tag labelling) in AD293 cells; details: for AD293 Surface: Fig S3E, mean; for Surface SNAP-GIPR expression: sheet Fig 1C;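 on all read-outs here: scaled to the experimental average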
Summary of the method: as §2

[4] = system: wild-type and variant SNAP-GIPR; assay: cADDis cAMP imaging in AD293 cells, ensemble, expression-matched and per decile; details: Fig S3F, cADDis, mean
Summary of the method: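 Per-cell cAMP from cADDis intensity over time, with cells excluded by IBMX/FSK response criteria. Expression matching used wild-type surface-SNAP deciles, top and bottom trimmed, mean of decile means. Ensemble values ignore deciles. Wide-field imaging at 37 °C in KRBH with 6 mM glucose, 0.1% BSA, 24 h post-transfection in AD293.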

[5] = system: wild-type and variant SNAP-GIPR; assay: Constitutive and agonist-mediated internalization, reversible SNAP-tag labelling, INS-1 cells; parameters: key to Internalisation, GIP-only / Internalisation, Vehicle / Internalisation, +GIP: % internalization: residual fluorescence after Mesna vs pre-Mesna; details: Mean; for +GIP internalisation (100 nM) / GIP-specific internalisation (100 nM) / Constitutive internalisation (100 nM): Fig 4G; for +GIP internalisation (100 nM) / GIP-specific internalisation (100 nM): GIP 100 nM; for Internalisation, +GIP / Internalisation, GIP-only / Internalisation, Vehicle: Fig S4C, INS-1
Summary of the method: as §1

[6] = system: wild-type and variant SNAP-GIPR; assay: Single-concentration GIP cAMP response by HTRF in AD293 cells; details: Fig S3F, HTRF, mean;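 further: ratio to experiment-wide average response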
Procedure: (§3) All variants were tested in parallel on each occasion to control for transfection efficiency differences between experiments.

[7] = system: wild-type and variant SNAP-GIPR; assay: Single-concentration GIP cAMP response by HTRF in INS-1 cells; details: Fig S3E, mean
Procedure: as §3

[8] = column repeated, paired with cAMP 100 nM

B1: L100F (protein, UniProt P48546 22-466, looked up, variant L100F)
Gastric inhibitory …: RAETGSKGQTAGELYQRWERYRRECQETLAAAEPPSGLACNGSFDMYVCWDYAAPNATARASCPWYLPWHHHVAAGFVFRQCGSDGQWGLWRDHTQCENPEKNEAFLDQRLILERLQVMYTVGYSLSLATLLLALLILSLFRRLHCTRNYIHINLFTSFMLRAAAILSRDRLLPRPGPYLGDQALALWNQALAACRTAQIVTQYCVGANYTWLLVEGVYLHSLLVLVGGSEEGHFRYYLLLGWGAPALFVIPWVIVRYLYENTQCWERNEVKAIWWIIRTPILMTILINFLIFIRILGILLSKLRTRQMRCRDYRLRLARSTLTLVPLLGVHEVVFAPVTEEQARGALRFAKLGFEIFLSSFQGFLVSVLYCFINKEVQSEIRRGWHHCRLRRSLGEEQRQLPERAFRALPSGSGPGEVPTSRGLSSGTLPGPGNEASRELESYC
- +GIP internalisation (100 nM) [1]: 0.8469
- GIP-specific internalisation (100 nM) [1]: 0.2452
- Constitutive internalisation (100 nM) [1]: 0.6017
- Surface expression [1]: 1.442
- Internalisation, +GIP [1]: 58.6424
- Internalisation, GIP-only [1]: 16.9646
- Internalisation, Vehicle [1]: 41.6779
- Surface expression [2]: 1.643
- AD293 Surface [3, 8]: 1.501
- AD293 Surface ([3]; paired with cAMP 100 pM): 1.501
- Surface SNAP-GIPR expression ([3]; replicate 1): 1.524
- Surface SNAP-GIPR expression ([3]; replicate 2): 1.675
- Surface SNAP-GIPR expression ([3]; replicate 3): 1.679
- Surface SNAP-GIPR expression ([3]; replicate 4): 1.13
- Surface SNAP-GIPR expression ([3]; replicate 5): 1.597
- Surface SNAP-GIPR expression ([3]; replicate 6): 1.532
- Surface SNAP-GIPR expression ([3]; replicate 7): 1.271
- Surface SNAP-GIPR expression ([3]; replicate 8): 1.313
- Surface SNAP-GIPR expression ([3]; replicate 9): 1.282
- Surface SNAP-GIPR expression ([3]; replicate 10): 1.519
- Surface SNAP-GIPR expression ([3]; replicate 11): 1.303
- Surface SNAP-GIPR expression ([3]; replicate 12): 1.295
- Surface SNAP-GIPR expression ([3]; replicate 13): 1.669
- Surface SNAP-GIPR expression ([3]; replicate 14): 1.299
- Surface SNAP-GIPR expression ([3]; replicate 15): 1.522
- Surface SNAP-GIPR expression ([3]; replicate 16): 1.442
- Surface SNAP-GIPR expression ([3]; replicate 17): 1.643
- Surface SNAP-GIPR expression ([3]; replicate 18): 1.736
- Surface SNAP-GIPR expression ([3]; replicate 19): 1.668
- Surface SNAP-GIPR expression ([3]; replicate 20): 1.712
- Surface SNAP-GIPR expression ([3]; replicate 21): 1.622
- Surface SNAP-GIPR expression ([3]; replicate 22): 1.675
- Surface SNAP-GIPR expression ([3]; replicate 23): 1.531
- Surface SNAP-GIPR expression ([3]; replicate 24): 1.559
- Surface SNAP-GIPR expression ([3]; replicate 25): 1.328
- Surface SNAP-GIPR expression ([3]; replicate 26): 1.878
- Surface SNAP-GIPR expression ([3]; replicate 27): 1.259
- Surface SNAP-GIPR expression ([3]; replicate 28): 1.697
- Surface SNAP-GIPR expression ([3]; replicate 29): 1.401
- Surface SNAP-GIPR expression ([3]; replicate 30): 1.456
- Surface SNAP-GIPR expression ([3]; replicate 31): 1.661
- Surface SNAP-GIPR expression ([3]; replicate 32): 1.58
- Surface SNAP-GIPR expression ([3]; replicate 33): 1.459
- Surface SNAP-GIPR expression ([3]; replicate 34): 1.249
- Surface SNAP-GIPR expression ([3]; replicate 35): 1.682
- Surface SNAP-GIPR expression ([3]; replicate 36): 1.611
- Surface SNAP-GIPR expression ([3]; replicate 37): 1.381
- Surface SNAP-GIPR expression ([3]; replicate 38): 1.301
- Surface SNAP-GIPR expression ([3]; replicate 39): 1.418
- Surface SNAP-GIPR expression ([3]; replicate 40): 1.406
- Surface SNAP-GIPR expression ([3]; replicate 41): 1.553
- AD293 100 pM cADDis [4]: 37.4091
- AD293 100 nM cADDis [4]: 36.85
- +GIP internalisation (100 nM) [5]: 0.7901
- GIP-specific internalisation (100 nM) [5]: 0.1883
- Constitutive internalisation (100 nM) [5]: 0.6018
- Internalisation, +GIP [5]: 47.6567
- Internalisation, GIP-only [5]: 11.2267
- Internalisation, Vehicle [5]: 36.43
- AD293 100 pM HTRF [6]: 1.607
- AD293 100 nM HTRF [6]: 1.598
- INS-1 cAMP (100 nM) [7]: 1.416

B2: A207V (protein)
chain: B1 Gastric inhibitory … with F79L, A186V
- +GIP internalisation (100 nM) [1]: 0.7742
- GIP-specific internalisation (100 nM) [1]: 0.2212
- Constitutive internalisation (100 nM) [1]: 0.553
- Surface expression [1]: 1.34
- Internalisation, +GIP [1]: 58.1109
- Internalisation, GIP-only [1]: 16.6766
- Internalisation, Vehicle [1]: 41.4343
- Surface expression [2]: 1.239
- AD293 Surface [3, 8]: 1.462
- AD293 Surface ([3]; paired with cAMP 100 pM): 1.462
- Surface SNAP-GIPR expression ([3]; replicate 1): 1.611
- Surface SNAP-GIPR expression ([3]; replicate 2): 2.305
- Surface SNAP-GIPR expression ([3]; replicate 3): 1.718
- Surface SNAP-GIPR expression ([3]; replicate 4): 1.422
- Surface SNAP-GIPR expression ([3]; replicate 5): 1.389
- Surface SNAP-GIPR expression ([3]; replicate 6): 1.632
- Surface SNAP-GIPR expression ([3]; replicate 7): 1.104
- Surface SNAP-GIPR expression ([3]; replicate 8): 1.459
- Surface SNAP-GIPR expression ([3]; replicate 9): 1.373
- Surface SNAP-GIPR expression ([3]; replicate 10): 1.394
- Surface SNAP-GIPR expression ([3]; replicate 11): 1.581
- Surface SNAP-GIPR expression ([3]; replicate 12): 1.452
- Surface SNAP-GIPR expression ([3]; replicate 13): 1.286
- Surface SNAP-GIPR expression ([3]; replicate 14): 1.785
- Surface SNAP-GIPR expression ([3]; replicate 15): 1.758
- Surface SNAP-GIPR expression ([3]; replicate 16): 1.437
- Surface SNAP-GIPR expression ([3]; replicate 17): 1.378
- Surface SNAP-GIPR expression ([3]; replicate 18): 1.497
- Surface SNAP-GIPR expression ([3]; replicate 19): 1.272
- Surface SNAP-GIPR expression ([3]; replicate 20): 1.519
- Surface SNAP-GIPR expression ([3]; replicate 21): 1.502
- Surface SNAP-GIPR expression ([3]; replicate 22): 1.331
- Surface SNAP-GIPR expression ([3]; replicate 23): 1.374
- Surface SNAP-GIPR expression ([3]; replicate 24): 1.462
- Surface SNAP-GIPR expression ([3]; replicate 25): 1.289
- Surface SNAP-GIPR expression ([3]; replicate 26): 1.598
- Surface SNAP-GIPR expression ([3]; replicate 27): 1.353
- Surface SNAP-GIPR expression ([3]; replicate 28): 1.177
- Surface SNAP-GIPR expression ([3]; replicate 29): 1.377
- Surface SNAP-GIPR expression ([3]; replicate 30): 1.555
- Surface SNAP-GIPR expression ([3]; replicate 31): 1.582
- Surface SNAP-GIPR expression ([3]; replicate 32): 1.61
- Surface SNAP-GIPR expression ([3]; replicate 33): 1.695
- Surface SNAP-GIPR expression ([3]; replicate 34): 1.496
- Surface SNAP-GIPR expression ([3]; replicate 35): 1.543
- Surface SNAP-GIPR expression ([3]; replicate 36): 1.703
- Surface SNAP-GIPR expression ([3]; replicate 37): 1.143
- Surface SNAP-GIPR expression ([3]; replicate 38): 1.04
- Surface SNAP-GIPR expression ([3]; replicate 39): 1.054
- Surface SNAP-GIPR expression ([3]; replicate 40): 1.392
- Surface SNAP-GIPR expression ([3]; replicate 41): 1.284
- AD293 100 pM cADDis [4]: 35.8816
- AD293 100 nM cADDis [4]: 38.26
- +GIP internalisation (100 nM) [5]: 0.5824
- GIP-specific internalisation (100 nM) [5]: 0.1595
- Constitutive internalisation (100 nM) [5]: 0.4229
- Internalisation, +GIP [5]: 49.74
- Internalisation, GIP-only [5]: 13.34
- Internalisation, Vehicle [5]: 36.4
- AD293 100 pM HTRF [6]: 1.772
- AD293 100 nM HTRF [6]: 1.3964
- INS-1 cAMP (100 nM) [7]: 1.4138
